The values below come from patent US10344330B2, “Glatiramer acetate response biomarker mRNA potency assay” (Mylan Inc., priority 2013, dated 2019).

In assay [1] the test system is mouse TNF-α mRNA in primary LN cells. The assay is described as follows: Validation: mouse TNF-α mRNA by real-time PCR in LN cells of GA-immunized SJL/J mice (Example IV). The settings on record: for TNF-α mRNA Fold Change: normalized to GAPDH. The assay is classed as cell-based. The procedure:
(§1) Three experiments were conducted using one batch of GA (Mylan GMA). The primary LN cells were stimulated by incubation with 6 concentrations (0.3 to 20 μg/mL) of the GA for 6 hours at 37° C. Total RNA was isolated from LN cells stimulated with GA or controls. cDNA was synthesized from the RNA and the mRNA levels of seven mouse cytokines, IL-2, IL-4, IL-5, IL-10, IL-13, interferon (IFN)-γ and tumor necrosis factor (TNF)-α, were quantitatively measured by a real-time PCR method.
(§2) Female SJL/J mice at 8-9 weeks of age were immunized by injection into four footpads using a 1 mL syringe with a 27-G, ½-inch needle. Each mouse received a total injection volume of 0.1 mL of GMA emulsified in CFA (about 10 μL into each of the front footpads and 40 μL into each of the hind footpads). Animals were immunized on Day 0. After injection, animals were placed back in their cages and housed ≤6 animals per cage.
(§3) Immunized animals were sacrificed by cervical dislocation on Day 10 following immunization. […] After centrifugation at about 200×g for 10 minutes at 4° C., the cell pellet was re-suspended in 40 mL of DCCM-1 medium for cell counting. A Trypan blue exclusion method was used to determine the cell density of viable cells in the suspension. After cell counting, the LN cells were suspended in enriched DCCM-1 medium at density of 7.5×10^6 cells/mL. LN cells (0.12 mL) were plated into each well of 96-well tissue culture plates.
(§4) Dilutions of GA (Mylan GMA) were prepared using enriched DCCM-1 medium as the diluent. GA dilutions (0.12 mL) were added in the assigned wells of 96-well tissue culture plates. The same volume of LN cells (0.12 mL) isolated from immunized animals was added to the assigned wells. A positive control and a negative control were always performed in the same assay by treating LN cells with 2.5 μg/mL ConA and 10 μg/mL MBP, respectively. The LN cells with mock stimulation protocols (enriched DCCM-1 medium) were used to monitor the background mRNA level of a cytokine. The plates were incubated at 37° C. in a humidified 5% CO2 incubator for 6 hr.
(§5) At the end of incubation time, culture medium from stimulated cells was removed by aspiration and the cells were lysed using Qiagen or Promega lysis buffer. The lysate was transferred to an RNeasy Mini column (Qiagen) or wells of the SV 96 Binding Plate (Promega) for RNA isolation and cDNA synthesis. All tested samples were run in triplicate.
(§6) The SV 96 Total RNA Isolation System (Promega; Cat. No. Z3505) was used for total RNA isolation. Assay procedures were carried out according to each manufacturer's protocol. RNA samples were stored at −70° C. until use. […] The assay procedure was carried out according to the manufacturer's protocol.
(§7) The plate was centrifuged at 2000 rpm for 2 minutes at 4° C. to spin down the contents and eliminate air bubbles. Samples were prepared and run in a 96-well plate using a Life Technologies Real-Time PCR system (previously Applied Biosystems; Model No. 7500) according to the manufacturer's recommendation. The mix for the reference gene was prepared in the same way using the reference gene primer.
(§8) A relative quantitation method was used to analyze changes in mIL-2, mIL-4, mIL-5, mIL-10, mIL-13, mIFN-γ and TNF-α expression in GA treated samples relative to the untreated control (Enriched DCCM-1 treated) samples using the following program:
(§9) Levels of mouse cytokine amplicons were normalized to an internal probe level (GAPDH) from the same samples. The following equations were used to calculate the relative increase in response to GA stimulation compared to the control sample (Enriched DCCM1 sample): […]
(Quantitative PCR measures a nucleic acid by following its amplification.)

In assay [2] the test system is mouse IL-10 mRNA in primary LN cells. The assay is described as follows: Validation: mouse IL-10 mRNA by real-time PCR in LN cells of GA-immunized SJL/J mice (Example IV). The settings on record: for IL-10 mRNA Fold Change: normalized to GAPDH. The assay is classed as cell-based. The procedure: as §1, §2, §3, §4, §5, §6, §7, §8, §9
Assay [3] has as its system IL-1b secreted by LN cells. The assay is described as follows: IL-1b secretion by GA-stimulated LN cells, MSD 9-plex ELISA (Example II). The settings on record: 21 hr. The assay is classed as cell-based, mouse. The procedure: (§10) Animals at 8 weeks of age were immunized by injection into four footpads using a 1 mL syringe with a 27-G, 1⁄2-inch needle. […] Ten days post-immunization, immunized animals were sacrificed via cervical dislocation. […] The LN cells were isolated by pressing the LN with the plunger end of a sterile syringe. […] Trypan blue exclusion method was used to determine the cell density of viable cells in the suspension. […] Cat. […] LN cells were plated into a 24-well tissue culture plate for drug stimulation. […] Cell debris was removed by centrifugation at ca. 200×g for 10 minutes at 4° C. Cytokines secreted by treated cells were determined on the day of collection by ELISA using mouse TH 1/TH 2 9-Plex Tissue Culture Kit (Meso Scale Discovery; Cat No. […]-2, Lot #: K0032839) which detects Th1 cytokines (IFN-γ, IL-2, IL-12, IL-1β, TNF-α, CXCL1) and Th2 cytokines (IL-4, IL-5 and IL-10). For IFN-γ, culture media also were assayed at 45 hours using mouse IFN-γ Tissue Culture Kit (Meso Scale Discovery; Cat No. […] For the positive control, 0.5 mL of LN cells (5×10^6 cells/well) were treated with 0.5 mL of ConA (5 μg/mL). For the negative control, 0.5 mL of LN cells (5×10^6 cells/well) were treated with 0.5 mL of MBP (20 μg/mL). The LN cells with mock stimulation (enriched DCCM1 medium) were used to monitor the background level of a cytokine. For the cytokine assays, calibration standards or samples were incubated in the MULTI-SPOT or the SINGLE-SPOT plate and each cytokine bound to its corresponding capture antibody. All test samples were run in duplicate. The amount of each cytokine on its distinct spot was quantified using a cytokine-specific detection antibody labeled with MSD SULFO-TAGTM reagent. Electrochemiluminescent signals from immobilized SULFO-TAGTM-labeled complexes on each spot from each well were captured by the MSD SECTOR Imager 6000, which produces a signal directly proportional to the amount of captured cytokine in a test sample. The levels of cytokines in test samples were derived by interpolation from calibration curves with calibration standards of known concentrations using reagents provided with the MSD kits. Kits were used according to the manufacturer's protocols. […] Data are expressed as a response ratio of cytokine concentration in treated cell medium to control DCCM1 medium.
In general terms: An ELISA detects its analyte on a solid surface through an enzyme-linked reagent.

Assay [4] concerns KC (CXCL1) secreted by LN cells. The assay is described as follows: KC (CXCL1) secretion by GA-stimulated LN cells, MSD 9-plex ELISA (Example II). The assay is classed as cell-based, mouse. The settings on record: 21 hr. The procedure:
as §10

Where [5] appears, read: BALB/cByJ, immunized Mannitol Intraplantar.
Where [6] appears, read: C57BL10J, immunized GA Intraplantar.
[7] abbreviates: C57BL10J, immunized Mannitol Intraplantar.
Where [8] appears, read: CD-1, immunized GA Intraplantar.
The mark [9] stands for this setting: CD-1, immunized Mannitol Intraplantar.
Where [10] appears, read: BALB/cByJ, immunized GA Intraplantar.
Where [11] appears, read: SJL/J, MBP 10 μg/mL, all PCR runs.

On to “Concanavalin A [ConA, reference compound]”, for which the “TNF-α mRNA Fold Change” value in assay [1] (Experiment 1, 2.5 μg/mL) is on record as 1.9 fold; in assay [1] (Experiment 2, 2.5 μg/mL) it was 0.8 fold; in assay [1] (Experiment 3, 2.5 μg/mL), 1.6 fold. Further, the “IL-10 mRNA Fold Change” value came to 1.2 fold in assay [2] (Experiment 1, 2.5 μg/mL); 0.5 fold in assay [2] (Experiment 2, 2.5 μg/mL); 1.6 fold in assay [2] (Experiment 3, 2.5 μg/mL). Moreover, the “IL-1b secretion response ratio (treated cell medium to control DCCM1 medium)” value is 7.83 in assay [3] (setting [5]); 2.21 in assay [3] (setting [6]); 1.40 in assay [3] (setting [7]); 8.50 in assay [3] (setting [8]); 3.37 in assay [3] (setting [9]). Also, the “KC secretion response ratio (treated cell medium to control DCCM1 medium)” value in assay [4] (setting [10]) is listed as 1.52; in assay [4] (setting [5]) it was 1.00; in assay [4] (setting [7]) it was 1.34; in assay [4] (setting [8]), 1.56; in assay [4] (setting [9]) it was 2.55.

B1: MBP: myelin basic protein, a negative control (protein, UniProt P02686 1-304, looked up)
Myelin basic protein: MGNHAGKRELNAEKASTNSETNRGESEKKRNLGELSRTTSEDNEVFGEADANQNNGTSSQDTAVTDSKRTADPKNAWQDAHPADPGSRPHLIRLFSRDAPGREDNTFKDRPSESDELQTIQEDSAATSESLDVMASQKRPSQRHGSKYLATASTMDHARHGFLPRHRDTGILDSIGRFFGGDRGAPKRGSGKDSHHPARTAHYGSLPQKSHGRTQDENPVVHFFKNIVTPRTPPPSQGKGRGLSLSRFSWGAEGQRPGFGYGGRASDYKSAHKGFKGVDAQGTLSKIFKLGGRDSRSGSPMARR
In the case of B1, the “TNF-α mRNA Fold Change” value in assay [1] (Experiment 1, 10 μg/mL) came out at 1.0 fold; in assay [1] (Experiment 2, 10 μg/mL) it was 1.1 fold; in assay [1] (Experiment 3, 10 μg/mL), 1.1 fold. Besides, in assay [1] (setting [11]), the “TNF-α mRNA expression level in response to MBP treatment” value is given as at most 2 fold. Further, the “IL-10 mRNA Fold Change” value in assay [2] (Experiment 1, 10 μg/mL) was 1.1 fold; in assay [2] (Experiment 2, 10 μg/mL), 0.7 fold; in assay [2] (Experiment 3, 10 μg/mL), 1.0 fold. Besides, the “IL-10 mRNA expression level in response to MBP treatment” value in assay [2] (setting [11]) is listed as at most 2 fold. In addition, the “IL-1b secretion response ratio (treated cell medium to control DCCM1 medium)” value in assay [3] (setting [5]) is 0.87; in assay [3] (setting [6]) it was 0.99; in assay [3] (setting [7]) it was 0.92; in assay [3] (setting [8]), 1.37; in assay [3] (setting [9]), 1.20. The “KC secretion response ratio (treated cell medium to control DCCM1 medium)” value in assay [4] (setting [10]) worked out at 1.04; in assay [4] (setting [5]) it was 0.96; in assay [4] (setting [7]), 1.12; in assay [4] (setting [8]) it was 1.05; in assay [4] (setting [9]) it was 1.09.
